Series [1] relates to ZF11xHunt-Kox-1 (synthetic). Put plainly: cell_activity.
The subject of series [2] is ZF6xHunt-Kox-1 (synthetic). Put plainly: cell_activity. The note with it: htt mRNA repression up to 2.5-fold (60%); protein up to 2-fold; STHdh Q111 cells, 20 days.

Sequence of ZF11xHunt-Kox-1 (synthetic) (chain, as listed by the source): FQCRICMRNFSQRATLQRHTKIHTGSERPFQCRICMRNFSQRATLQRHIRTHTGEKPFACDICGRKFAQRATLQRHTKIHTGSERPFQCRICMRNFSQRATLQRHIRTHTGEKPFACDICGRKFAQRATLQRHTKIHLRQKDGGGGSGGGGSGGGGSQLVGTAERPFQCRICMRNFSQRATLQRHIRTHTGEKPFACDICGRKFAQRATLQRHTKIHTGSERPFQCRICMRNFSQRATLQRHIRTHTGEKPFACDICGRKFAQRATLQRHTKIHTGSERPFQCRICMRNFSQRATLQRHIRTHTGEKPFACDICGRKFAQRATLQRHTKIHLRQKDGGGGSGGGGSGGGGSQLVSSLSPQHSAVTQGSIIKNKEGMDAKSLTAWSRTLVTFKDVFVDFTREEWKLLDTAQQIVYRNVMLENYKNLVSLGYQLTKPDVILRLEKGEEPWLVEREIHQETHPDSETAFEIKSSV
Sequence of ZF6xHunt-Kox-1 (synthetic) (chain, as listed by the source): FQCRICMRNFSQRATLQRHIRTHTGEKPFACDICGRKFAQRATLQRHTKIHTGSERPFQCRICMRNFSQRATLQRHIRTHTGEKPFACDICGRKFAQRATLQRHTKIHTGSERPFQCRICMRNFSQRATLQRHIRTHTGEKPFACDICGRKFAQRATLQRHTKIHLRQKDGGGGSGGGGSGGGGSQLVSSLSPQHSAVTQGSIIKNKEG

In turn, R6/2 mutant htt transgene came in with an activity in series [1] (mean mutant htt mRNA reduction in R6/2 striatum at 6 weeks, AAV2/1 delivery) of over 45 % reduction.

For mutant htt Q111 chromosomal locus, the activity is under 2.5 fold in series [2]; 80 % reduction in series [1] (almost 80% mRNA reduction and 95% protein reduction, STHdh Q111 cells, 20 days).
